Assay results as given in patent US20220378827A1 (EMORY UNIVERSITY, published 2022).

Target: T1, CD5 antigen on T cells (Jurkat, Molt-4, gamma delta T cells) (UniProt P06127 25-495, limits assumed)
T1 sequence (looked up): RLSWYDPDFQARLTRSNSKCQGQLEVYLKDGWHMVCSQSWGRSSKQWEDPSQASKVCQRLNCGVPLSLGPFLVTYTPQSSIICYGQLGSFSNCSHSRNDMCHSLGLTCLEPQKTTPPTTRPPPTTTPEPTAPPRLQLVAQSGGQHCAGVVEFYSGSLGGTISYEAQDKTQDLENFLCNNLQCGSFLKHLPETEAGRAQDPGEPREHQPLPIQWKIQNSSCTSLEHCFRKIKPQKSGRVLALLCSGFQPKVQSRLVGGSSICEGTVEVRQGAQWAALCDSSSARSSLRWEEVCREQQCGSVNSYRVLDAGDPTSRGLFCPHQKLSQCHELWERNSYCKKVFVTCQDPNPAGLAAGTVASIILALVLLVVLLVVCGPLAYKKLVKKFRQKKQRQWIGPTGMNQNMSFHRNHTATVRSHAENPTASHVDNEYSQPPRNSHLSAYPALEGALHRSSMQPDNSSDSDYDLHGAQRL
Assay: cell-based or functional assay

B1: CD5-NSCAR (CD5 scFv non-signaling chimeric antigen receptor) (other)
chain: GAPEIQLVQSGGGLVKPGGSVRISCAASGYTFTNYGMNWVRQAPGKGLEWMGWINTHTGEPTYADSFKGRFTFSLDDSKNTAYLQINSLRAEDTAVYFCTRRGYDWYFDVWGQGTTVTVSSGGGGSGGGGSGGGGSDIQMTQSPSSLSASVGDRVTITCRASQDINSYLSWFQQKPGKAPKTLIYRANRLESGVPSRFSGSGSGTDYTLTISSLQYEDFGIYYCQQYDESPWTFGGGTKLEIKASEQKLISEEDLDNEKSNGTIIHVKGKHLCPSPLFPGPSKPFWVLVVVGGVLACYSLLVTVAFIIFWVRSEWPGKVR
- CD5 expression on non-modified Jurkat T cells in co-culture with CD5-NSCAR-modified Jurkat T cells, 1:1 ratio: < 20%
